Source: the supplement of paper PMC9112550, “Optimization of the antimicrobial peptide Bac7 by deep mutational scanning” (BMC Biology, 2022)

Tested on: Escherichia coli TOP10
Assay: shrunken log2 fold change of peptide-encoding DNA abundance (4.5 h post-induction vs induction); higher = less antimicrobial activity (less host growth inhibition)
Conditions: time post-induction: 4.5 h; library: site-saturation at positions 5, 18, 19, 20
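Note: peptides expressed intracellularly from a pBAD plasmid library in pooled LB shake-flask culture, induced with 0.3% L-arabinose, DNA abundance read by NGS, three biological replicates, DESeq2 with apeglm shrinkage.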

Sequence	shrunken log2 fold change
RRIRRRPPRLPRPRPRPGNRPRP	-0.151
RRIRRRPPRLPRPRPRPGPCPRP	0.0678
RRIRRRPPRLPRPRPRPGPFPRP	0.162
RRIRRRPPRLPRPRPRPGQLPRP	0.0163
RRIRRRPPRLPRPRPRPGSSPRP	0.103
RRIRRRPPRLPRPRPRPGTQPRP	0.0536
RRIRRRPPRLPRPRPRPGTWPRP	0.0793
RRIRRRPPRLPRPRPRPGVEPRP	0.99
RRIRRRPPRLPRPRPRPGWDPRP	0.0298
RRIRRRPPRLPRPRPRPGWTPRP	0.326
RRIRRRPPRLPRPRPRPGYFPRP	-0.209
RRIRRRPPRLPRPRPRPGYLPRP	-0.12
RRIRRRPPRLPRPRPRPHADPRP	0.573
RRIRRRPPRLPRPRPRPHAQPRP	0.0722
RRIRRRPPRLPRPRPRPHCDPRP	-0.164
RRIRRRPPRLPRPRPRPHDQPRP	0.0964
RRIRRRPPRLPRPRPRPHDRPRP	0.103
RRIRRRPPRLPRPRPRPHFQPRP	-0.0173
RRIRRRPPRLPRPRPRPHHLPRP	-0.0855
RRIRRRPPRLPRPRPRPHIPPRP	-0.126
RRIRRRPPRLPRPRPRPHKRPRP	0.124
RRIRRRPPRLPRPRPRPHMCPRP	-0.0222
RRIRRRPPRLPRPRPRPHNDPRP	1.99
RRIRRRPPRLPRPRPRPHNYPRP	0.103
RRIRRRPPRLPRPRPRPHPQPRP	0.268

Sequence	shrunken log2 fold change
RRIRRRPPRLPRPRPRPHQDPRP	0.0414
RRIRRRPPRLPRPRPRPHQTPRP	0.17
RRIRRRPPRLPRPRPRPHRKPRP	-0.247
RRIRRRPPRLPRPRPRPHTKPRP	0.179
RRIRRRPPRLPRPRPRPHWYPRP	-0.404
RRIRRRPPRLPRPRPRPIAKPRP	0.252
RRIRRRPPRLPRPRPRPICTPRP	0.391
RRIRRRPPRLPRPRPRPIDYPRP	-0.029
RRIRRRPPRLPRPRPRPIEHPRP	-0.00775
RRIRRRPPRLPRPRPRPIELPRP	-0.192
RRIRRRPPRLPRPRPRPIERPRP	0.0771
RRIRRRPPRLPRPRPRPIFQPRP	0.303
RRIRRRPPRLPRPRPRPIGPPRP	0.147
RRIRRRPPRLPRPRPRPIHYPRP	-0.359
RRIRRRPPRLPRPRPRPIICPRP	0.0738
RRIRRRPPRLPRPRPRPIKKPRP	0.907
RRIRRRPPRLPRPRPRPIKLPRP	-0.128
RRIRRRPPRLPRPRPRPILHPRP	-0.0819
RRIRRRPPRLPRPRPRPIMCPRP	0.0545
RRIRRRPPRLPRPRPRPIMGPRP	-0.267
RRIRRRPPRLPRPRPRPIMRPRP	0.277
RRIRRRPPRLPRPRPRPIPGPRP	0.292
RRIRRRPPRLPRPRPRPIPKPRP	0.0997
RRIRRRPPRLPRPRPRPIRAPRP	0.266
RRIRRRPPRLPRPRPRPIRSPRP	0.022

Sequence	shrunken log2 fold change
RRIRRRPPRLPRPRPRPISFPRP	-0.27
RRIRRRPPRLPRPRPRPISMPRP	0.0655
RRIRRRPPRLPRPRPRPITPPRP	0.243
RRIRRRPPRLPRPRPRPITTPRP	0.032
RRIRRRPPRLPRPRPRPIWNPRP	0.0946
RRIRRRPPRLPRPRPRPIWPPRP	0.664
RRIRRRPPRLPRPRPRPIWTPRP	0.181
RRIRRRPPRLPRPRPRPIYLPRP	-0.205
RRIRRRPPRLPRPRPRPKAIPRP	0.111
RRIRRRPPRLPRPRPRPKCRPRP	0.453
RRIRRRPPRLPRPRPRPKDTPRP	0.0485
RRIRRRPPRLPRPRPRPKFMPRP	0.122
RRIRRRPPRLPRPRPRPKFPPRP	0.361
RRIRRRPPRLPRPRPRPKFYPRP	-0.102
RRIRRRPPRLPRPRPRPKGDPRP	0.3
RRIRRRPPRLPRPRPRPKGQPRP	0.176
RRIRRRPPRLPRPRPRPKHGPRP	-0.0664
RRIRRRPPRLPRPRPRPKHHPRP	0.346
RRIRRRPPRLPRPRPRPKHRPRP	0.376
RRIRRRPPRLPRPRPRPKHYPRP	0.227
RRIRRRPPRLPRPRPRPKICPRP	0.0561
RRIRRRPPRLPRPRPRPKIHPRP	0.02
RRIRRRPPRLPRPRPRPKISPRP	0.14
RRIRRRPPRLPRPRPRPKKFPRP	-0.205
RRIRRRPPRLPRPRPRPKKGPRP	0.403

Sequence	shrunken log2 fold change
RRIRRRPPRLPRPRPRPKLCPRP	0.333
RRIRRRPPRLPRPRPRPKNNPRP	-0.0641
RRIRRRPPRLPRPRPRPKPMPRP	0.687
RRIRRRPPRLPRPRPRPKPPPRP	0.735
RRIRRRPPRLPRPRPRPKQSPRP	0.143
RRIRRRPPRLPRPRPRPKRDPRP	0.5
RRIRRRPPRLPRPRPRPKRPPRP	0.656
RRIRRRPPRLPRPRPRPKRTPRP	0.759
RRIRRRPPRLPRPRPRPKSQPRP	0.104
RRIRRRPPRLPRPRPRPKTEPRP	0.452
RRIRRRPPRLPRPRPRPKWQPRP	-0.175
RRIRRRPPRLPRPRPRPKYIPRP	-0.135
RRIRRRPPRLPRPRPRPLAAPRP	0.874
RRIRRRPPRLPRPRPRPLDDPRP	0.0512
RRIRRRPPRLPRPRPRPLDEPRP	0.632
RRIRRRPPRLPRPRPRPLEMPRP	0.181
RRIRRRPPRLPRPRPRPLHYPRP	0.239
RRIRRRPPRLPRPRPRPLKRPRP	0.161
RRIRRRPPRLPRPRPRPLMKPRP	-0.12
RRIRRRPPRLPRPRPRPLMNPRP	0.312
RRIRRRPPRLPRPRPRPLNGPRP	0.112
RRIRRRPPRLPRPRPRPLNIPRP	-0.651
RRIRRRPPRLPRPRPRPLNMPRP	-0.126
RRIRRRPPRLPRPRPRPLSLPRP	-0.203
RRIRRRPPRLPRPRPRPLVIPRP	-0.0686

Sequence	shrunken log2 fold change
RRIRRRPPRLPRPRPRPLVPPRP	0.175
RRIRRRPPRLPRPRPRPLWWPRP	0.48
RRIRRRPPRLPRPRPRPMAFPRP	0.024
RRIRRRPPRLPRPRPRPMARPRP	0.0728
RRIRRRPPRLPRPRPRPMCEPRP	0.516
RRIRRRPPRLPRPRPRPMCMPRP	-0.0115
RRIRRRPPRLPRPRPRPMDYPRP	0.0716
RRIRRRPPRLPRPRPRPMENPRP	0.113
RRIRRRPPRLPRPRPRPMEPPRP	0.0257
RRIRRRPPRLPRPRPRPMFGPRP	-0.0512
RRIRRRPPRLPRPRPRPMHNPRP	0.384
RRIRRRPPRLPRPRPRPMIYPRP	-0.305
RRIRRRPPRLPRPRPRPMKLPRP	-0.123
RRIRRRPPRLPRPRPRPMLKPRP	0.0333
RRIRRRPPRLPRPRPRPMMDPRP	-0.00156
RRIRRRPPRLPRPRPRPMMMPRP	0.0332
RRIRRRPPRLPRPRPRPMMSPRP	0.0352
RRIRRRPPRLPRPRPRPMQSPRP	0.0774
RRIRRRPPRLPRPRPRPMRDPRP	0.62
RRIRRRPPRLPRPRPRPMRRPRP	0.425
RRIRRRPPRLPRPRPRPMRVPRP	0.93
RRIRRRPPRLPRPRPRPMSFPRP	-0.0277
RRIRRRPPRLPRPRPRPMSIPRP	-0.465
RRIRRRPPRLPRPRPRPMTRPRP	0.315
RRIRRRPPRLPRPRPRPMTVPRP	-0.238

Sequence	shrunken log2 fold change
RRIRRRPPRLPRPRPRPMVGPRP	0.397
RRIRRRPPRLPRPRPRPMWHPRP	-0.03
RRIRRRPPRLPRPRPRPMWSPRP	0.311
RRIRRRPPRLPRPRPRPMYAPRP	0.148
RRIRRRPPRLPRPRPRPMYMPRP	-0.212
RRIRRRPPRLPRPRPRPMYVPRP	-0.203
RRIRRRPPRLPRPRPRPNAHPRP	0.0582
RRIRRRPPRLPRPRPRPNCTPRP	0.00402
RRIRRRPPRLPRPRPRPNCVPRP	0.245
RRIRRRPPRLPRPRPRPNELPRP	0.457
RRIRRRPPRLPRPRPRPNERPRP	-0.0664
RRIRRRPPRLPRPRPRPNFFPRP	0.184
RRIRRRPPRLPRPRPRPNFSPRP	0.211
RRIRRRPPRLPRPRPRPNHSPRP	-0.321
RRIRRRPPRLPRPRPRPNISPRP	-0.263
RRIRRRPPRLPRPRPRPNLRPRP	0.00766
RRIRRRPPRLPRPRPRPNMEPRP	0.0673
RRIRRRPPRLPRPRPRPNPCPRP	0.0776
RRIRRRPPRLPRPRPRPNQAPRP	0.212
RRIRRRPPRLPRPRPRPNRCPRP	0.118
RRIRRRPPRLPRPRPRPNRKPRP	0.105
RRIRRRPPRLPRPRPRPNSIPRP	-0.236
RRIRRRPPRLPRPRPRPNTVPRP	-0.107
RRIRRRPPRLPRPRPRPNVVPRP	0.0745
RRIRRRPPRLPRPRPRPNVWPRP	1.99
